Where a chain is given by its changes, count along the chain named. Where no end group is shown, it is not given here. The star is where a group is joined. 5FAM = O=C1OC2(c3ccc(O)cc3Oc3cc(O)ccc32)c2ccc(C(=O)*)cc21
T1: MBP-SNX17 N459A + F462A (UniProt Q15036 1-470, N459A | F462A)
T1 construct: not shown: MBP, N-terminal, kept
T1 sequence (looked up): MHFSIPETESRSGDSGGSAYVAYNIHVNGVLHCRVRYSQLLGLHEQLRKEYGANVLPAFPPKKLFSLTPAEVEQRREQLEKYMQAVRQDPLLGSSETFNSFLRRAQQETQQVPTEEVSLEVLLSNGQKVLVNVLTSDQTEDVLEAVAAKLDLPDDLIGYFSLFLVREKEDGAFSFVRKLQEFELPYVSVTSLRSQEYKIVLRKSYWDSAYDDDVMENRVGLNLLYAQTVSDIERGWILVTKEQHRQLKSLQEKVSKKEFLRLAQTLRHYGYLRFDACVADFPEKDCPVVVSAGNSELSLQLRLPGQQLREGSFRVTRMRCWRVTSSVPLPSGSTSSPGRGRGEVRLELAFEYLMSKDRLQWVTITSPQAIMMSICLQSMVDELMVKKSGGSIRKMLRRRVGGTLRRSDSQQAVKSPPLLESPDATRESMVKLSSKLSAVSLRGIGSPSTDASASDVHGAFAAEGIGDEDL

T2: MBP-SNX17 (full-length, wild-type) (UniProt Q15036 1-470)
T2 construct: also called MBP-SNX17FL; WT; not shown: MBP, N-terminal, kept
T2 sequence (looked up): T1 sequence (looked up) with A459N, A462F

T3: MBP-SNX17 L470G (UniProt Q15036 1-470, L470G)
T3 construct: not shown: MBP, N-terminal, kept
T3 sequence (looked up): T1 sequence (looked up) with A459N, A462F, L470G

B1: Peptide ITGB1_(P-14mer) (peptide)
peptide: 5FAM-KWDTGENPIYKSAV
notes: also called ITGB1 membrane-proximal site; source: synthetic peptide (GenScript)
B2: Peptide ITGB1_(D-13mer) (peptide)
peptide: 5FAM-AVTTVVNPKYEGK
notes: also called ITGB1 distal site; source: synthetic peptide (GenScript)
B3: GST-LRP1ICD (domain or fragment, UniProt Q07954 4444-4544, looked up)
chain: YKRRVQGAKGFQHQRMTNGAMNVEIGNPTYKMYEGGEPDDVGGLLDADFALDPDKPTNFTNPVYATLYMGGHGSRHSLASTDEKRELLGRGPEDEIGDPLA
notes: not shown: GST, N-terminal, kept
B4: MBP-SNX17 W321A (natural protein)
chain: T1 sequence (looked up) with W321A, A459N, A462F
notes: not shown: MBP, N-terminal, kept
B5: MBP-SNX17 V380D (natural protein)
chain: T1 sequence (looked up) with V380D, A459N, A462F
notes: as for B4
B6: MBP-SNX17 H457A (natural protein)
chain: T1 sequence (looked up) with H457A, A459N, A462F
notes: as for B4
B7: SNX17_(FERM-CT) (amino acids 109-470) (domain or fragment)
chain: TQQVPTEEVSLEVLLSNGQKVLVNVLTSDQTEDVLEAVAAKLDLPDDLIGYFSLFLVREKEDGAFSFVRKLQEFELPYVSVTSLRSQEYKIVLRKSYWDSAYDDDVMENRVGLNLLYAQTVSDIERGWILVTKEQHRQLKSLQEKVSKKEFLRLAQTLRHYGYLRFDACVADFPEKDCPVVVSAGNSELSLQLRLPGQQLREGSFRVTRMRCWRVTSSVPLPSGSTSSPGRGRGEVRLELAFEYLMSKDRLQWVTITSPQAIMMSICLQSMVDELMVKKSGGSIRKMLRRRVGGTLRRSDSQQAVKSPPLLESPDATRESMVKLSSKLSAVSLRGIGSPSTDASASDVHGNFAFEGIGDEDL

Assays:
Conditions in all cases: both partners purified
[1] = target: B7; assay: fluorescence polarisation
[2] = target: T1, MBP-SNX17 N459A + F462A; assay: fluorescence polarisation
[3] = target: T2, MBP-SNX17 (full-length, wild-type); assay: pull-down
[4] = target: T4, Retriever complex (UniProt O14972 1-297; Q9UBQ0 1-182; Q7Z3J2 1-963); assay: pull-down
[5] = target: T4, Retriever complex; assay: pull-down; GST pull-down: GST-L2FBR on glutathione agarose, Retriever together with SNX17PX, SNX17 FERM-CT or MBP-SNX17FL; VPS35L band quantified; Coomassie
[6] = target: T3, MBP-SNX17 L470G; assay: fluorescence polarisation
[7] = target: B6; assay: fluorescence polarisation

Work on 5FAM-QQNGYENPTYKFFE (source: synthetic peptide (GenScript)) [Peptide APP_(14mer)] yielded a Kd [1] of 19 µM.

For 5FAM-KLITYDNPAYEGID (source: synthetic peptide (GenScript)) [Peptide L2_(14mer)], the Kd [1] was 0.6 µM and the binding result [2] was “binds”.

Work on B1 yielded a Kd [1] of 72 µM.

B2 gave a Kd [1] of 125 µM.

B3: binds [3].

B4: binds [4].

B5: binds [4].

B6: binds [4].

B7: binds [5].

DPAFVTTPTKLITYDNPAYEGIDVDNTLYF (domain or fragment, not shown: GST, N-terminal, kept) [GST-L2FBR]: binds [3].

5FAM-MNVEIGNPTYKMYE (source: synthetic peptide (GenScript)) [Peptide LRP1_(14mer)] was tested, and the Kd [1] was 2.2 µM, the binding result [6] was “binds” and the binding result [7] was “binds”. 5FAM-MNVEIGNPTYKMYE (source: synthetic peptide (GenScript)) [Peptide LRP1_(14mer)]: binds [2].

From publication PMC11772769, “Selective cargo and membrane recognition by SNX17 regulates its interaction with Retriever” (EMBO Reports, 2024)
